These results are taken from PMC3511050 (FEBS letters, 2012).

As usually defined, the Kd is the equilibrium constant for the complex coming apart. A word on the stoichiometry N: it is the number of molecules, sites or subunits per partner or assembly. Usually Ki stands for a measure of affinity in units of concentration, obtained from inhibition or displacement. Read a high Ki as weaker binding.

One assay deals with SufE (Escherichia coli) (UniProt P76194). The experiment in a line: SPR. The settings on record: cited from earlier work.
The target of another assay is T1, SufE (E. coli), P76194.
T1 chain: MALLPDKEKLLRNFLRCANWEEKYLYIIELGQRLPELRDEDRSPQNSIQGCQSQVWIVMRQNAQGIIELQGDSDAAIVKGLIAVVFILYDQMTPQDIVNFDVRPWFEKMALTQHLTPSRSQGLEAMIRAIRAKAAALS
As to the kind of experiment: cross-linking. Particulars: remark: other sources report otherwise.

In assay [1] the target is T2, SufS cysteine desulfurase (E. coli, UniProt P77444 1-406).
T2 sequence (looked up): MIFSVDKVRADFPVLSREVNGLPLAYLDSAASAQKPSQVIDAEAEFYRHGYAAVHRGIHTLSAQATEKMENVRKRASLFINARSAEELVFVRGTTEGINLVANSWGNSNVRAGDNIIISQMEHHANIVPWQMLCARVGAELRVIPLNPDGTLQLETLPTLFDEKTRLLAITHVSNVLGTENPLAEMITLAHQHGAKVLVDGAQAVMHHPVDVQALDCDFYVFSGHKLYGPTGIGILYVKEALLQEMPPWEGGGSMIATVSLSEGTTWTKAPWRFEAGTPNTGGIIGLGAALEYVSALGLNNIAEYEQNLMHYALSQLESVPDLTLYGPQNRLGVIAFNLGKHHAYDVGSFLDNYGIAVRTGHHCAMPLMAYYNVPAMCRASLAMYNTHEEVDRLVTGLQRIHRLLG
The experiment in a line: inhibition of enzyme activity.

Turning to SufS (from UniProt P77444), the Kd with SufE (Escherichia coli) was 0.36 µM.

B1: SufE, P76194 1-138 (natural protein)
chain: MALLPDKEKLLRNFLRCANWEEKYLYIIELGQRLPELRDEDRSPQNSIQGCQSQVWIVMRQNAQGIIELQGDSDAAIVKGLIAVVFILYDQMTPQDIVNFDVRPWFEKMALTQHLTPSRSQGLEAMIRAIRAKAAALS
B1: in the assay with SufE (E. coli), P76194, the percent of total protein as disulfide-bonded homodimer (with or without H2O2) stood at 18% and the stoichiometry N was found to be 2.

B2: SufE where C51 has been covalently blocked with iodoacetamide (natural protein, E. coli, UniProt P76194 1-138, looked up)
chain: MALLPDKEKLLRNFLRCANWEEKYLYIIELGQRLPELRDEDRSPQNSIQGCQSQVWIVMRQNAQGIIELQGDSDAAIVKGLIAVVFILYDQMTPQDIVNFDVRPWFEKMALTQHLTPSRSQGLEAMIRAIRAKAAALS
modifications: C51 covalently blocked with iodoacetamide
B2: in assay [1], the Ki is 0.19 µM.
